Measured values: article PMC2364164

Target: recombinant fusion protein of MVP and glutathione-S-transferase (GST-MVP) (human) (UniProt Q14764)
Test: SPR; BIAcore 2000; GST-MVP immobilised on CM-5 sensorchip (2000 resonance units); soluble Fab flowed at 25 μl per minute, room temperature, HBS-EP (0.01 M HEPES pH 7.4, 0.15 M NaCl, 3 mM EDTA, 0.005% polysorbate 20); dissociation rates only

Chain of UniProt Q14764 (Q14764 whole entry, the tested form may be a part): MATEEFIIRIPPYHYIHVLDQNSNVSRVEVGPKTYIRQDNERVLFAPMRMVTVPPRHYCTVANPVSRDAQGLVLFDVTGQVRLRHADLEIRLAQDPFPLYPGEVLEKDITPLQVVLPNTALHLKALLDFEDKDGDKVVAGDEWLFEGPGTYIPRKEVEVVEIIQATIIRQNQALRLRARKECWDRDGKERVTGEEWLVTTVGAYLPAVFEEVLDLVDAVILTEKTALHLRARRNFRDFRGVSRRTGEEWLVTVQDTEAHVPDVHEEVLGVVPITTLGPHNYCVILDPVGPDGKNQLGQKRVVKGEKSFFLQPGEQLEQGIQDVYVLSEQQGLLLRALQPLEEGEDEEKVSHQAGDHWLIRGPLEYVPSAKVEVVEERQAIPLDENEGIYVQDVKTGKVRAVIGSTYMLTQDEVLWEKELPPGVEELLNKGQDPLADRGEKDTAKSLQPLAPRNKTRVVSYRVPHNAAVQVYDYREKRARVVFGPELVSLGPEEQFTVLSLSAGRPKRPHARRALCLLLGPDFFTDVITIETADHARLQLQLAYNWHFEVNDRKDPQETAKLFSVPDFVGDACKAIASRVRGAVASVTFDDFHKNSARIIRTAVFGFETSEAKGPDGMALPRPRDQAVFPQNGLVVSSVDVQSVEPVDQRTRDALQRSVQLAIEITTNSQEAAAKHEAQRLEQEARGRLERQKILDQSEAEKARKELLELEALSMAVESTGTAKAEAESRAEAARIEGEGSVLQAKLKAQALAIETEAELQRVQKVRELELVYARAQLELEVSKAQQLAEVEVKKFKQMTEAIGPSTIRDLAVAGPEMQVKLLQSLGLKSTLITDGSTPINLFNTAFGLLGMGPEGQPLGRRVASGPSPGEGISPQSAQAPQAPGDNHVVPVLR

koff: 0.0013 s⁻¹
B1: MVP-φ4 human Fab fragment (soluble) (Fab, V domains shown)
VH: QLQLQESGPGLVKPSETLSLTCSVSGGSISSGGYYWSWIRQRPGKGLEWIGYIYYSGSTTYNPSLKSRVTMSVDTSKNQFSLKLSSVTAADTAFYYCARQGVYYYYGMDVWGQGTTVTVSS
VL: NFMLTQPHSVSESPGKTITISCTRSSGSIGSNYVYWYQQRPDSSPTIVIYADNERPSGVPGRFSGSIDSSSNSASLTISGLRAEDEADYYCQSYSNNKWIFGGGTKVTVL
